# In US20100160617:
# Legend:
# [1] = molecular target: HCV NS5B RNA-dependent RNA polymerase (Hepatitis C virus) (UniProt P26663); experiment: EMSA; settings: 2'-F on all C and U; apparent Kd; 4% nondenaturing gel
# [2] = molecular target: HCV NS5B RNA-dependent RNA polymerase (Hepatitis C virus) (UniProt P26663); experiment: SPR; settings: 2'-F on all C and U
# Sequence of HCV NS5B RNA-dependent RNA polymerase (Hepatitis C virus) (P26663 2420-3010): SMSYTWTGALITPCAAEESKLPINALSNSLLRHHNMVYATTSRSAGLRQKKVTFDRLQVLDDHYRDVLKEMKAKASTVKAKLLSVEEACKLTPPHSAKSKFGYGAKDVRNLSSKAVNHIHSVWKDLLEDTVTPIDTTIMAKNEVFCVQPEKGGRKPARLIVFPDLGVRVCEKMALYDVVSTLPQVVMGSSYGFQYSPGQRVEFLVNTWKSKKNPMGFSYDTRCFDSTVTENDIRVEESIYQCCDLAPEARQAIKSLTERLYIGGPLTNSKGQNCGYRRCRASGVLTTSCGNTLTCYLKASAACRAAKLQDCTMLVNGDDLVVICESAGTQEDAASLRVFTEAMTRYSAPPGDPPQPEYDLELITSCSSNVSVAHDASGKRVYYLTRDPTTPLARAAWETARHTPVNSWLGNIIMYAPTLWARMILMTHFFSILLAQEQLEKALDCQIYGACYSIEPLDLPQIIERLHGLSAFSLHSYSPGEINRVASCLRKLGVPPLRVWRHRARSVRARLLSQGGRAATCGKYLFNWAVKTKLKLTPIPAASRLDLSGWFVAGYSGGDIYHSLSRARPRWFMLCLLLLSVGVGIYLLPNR
sequence,measurement,setting,value
GGGAGAGCGGAAGCGUGCUGGGCCUUGAACGAUUGGUAGUAGAAUAUCGUCAGUGAACGGCAGUCAUAACCCAGAGGUCGAUGGAUCCU [RNA aptamer #9],Kd,[1],18 nM
GUUGAACGAUUGGUAGUAGAAUAUCGUCAG [RNA aptamer #9-t2],Kd,[2]; listing SEQ 4 lacks the 5' G printed in text,2.6 nM
GGGAGAGCGGAAGCGUGCUGGGCCGACAGGGUAGCUUACAGCUGCAUGAUCGCUAGAGGGCGAACAUAACCCAGAGGUCGAUGGAUCCCCCC [RNA aptamer #24],Kd,[1],5 nM
AACGAUUGGUAGUAGAAUAUCGU [RNA aptamer #9-t3],Kd,[2]; 5' end of the transcript may carry extra G from T7 primer,40.4 nM
GCUGGGCCUUGAACGAUUGGUAGUAGAAUAUCGUCAGUGAACGGC [RNA aptamer #9-t1],Kd,[2],8.4 nM
